{"source": "paper PMC7392888", "system": "O=C(Cc1cccs1)N[C@@H]1C(=O)N2C(C(=O)O)=C(/C=C/c3ccc([N+](=O)[O-])cc3[N+](=O)[O-])CS[C@H]12", "assay": "purified protein", "conditions": "Zn2+ enzyme; steady-state buffer and pH not given here; King-Altman value from pre-steady-state data listed separately"}
{"substance": "MIM-1 (Novosphingobium pentaromativorans US6-1)", "values": [{"measurement": "Km", "value": "41 ± 10", "unit": "µM"}, {"measurement": "kcat", "value": "17 ± 4", "unit": "s⁻¹"}]}
{"substance": "SAM-1 (Simiduia agarivorans SA1 = DSM 21679)", "values": [{"measurement": "Km", "value": "20 ± 3", "unit": "µM"}, {"measurement": "kcat", "value": "10 ± 5", "unit": "s⁻¹"}]}
